EC50 and IC50 data for two molecules are collected here from patent US20030185819A1 (Biogen, published 2003).

In test [1] the target is T1, VLA-4 (integrin alpha4 beta1) on the human B cell line Ramos (human, UniProt P13612 34-1032; P05556 21-798).
T1 construct: whole, on cells; also called α4β1; VLA-4-expressing cells
Nature of the test: FACS, half-maximal binding to Ramos cells. The method, then: Briefly, 25 μl cells (4×10^6/ml in FACS buffer (PBS 2% FBS, 0.1% NaN₃) on ice are added to 5 μl of 5 μg/ml FITC or phycoerythrin (PE) conjugated antibody in FACS buffer, and incubated in V-bottomed microtiter wells on ice for 30 minutes. To the wells, 125 μl of FACS buffer is added, the plates are centrifuged at 350×g for 5 minutes, and the supernatant is shaken off. To each well is added 125 μl FACS buffer, then the cells are transferred to 12×75 mm Falcon polystyrene tubes and resuspended to a final volume of 250 μl in FACS buffer. The mixture is analyzed on a Becton Dickinson FACStar. The results of the FACS assays as represented by the calculated half-maximal binding […] Using humanized recombinant anti-VLA-4 antibodies made according to the present invention are shown in Table III and the number (n) of experiments performed for each value is indicated for the humanized antibodies. […] Murine HP1/2 binds half-maximally to Ramos cells at 15 ng/ml. The AS/SVMDY humanized antibody binds half-maximally to Ramos cells at 12 ng/ml. Thus, the two assays (i.e., adhesion and FACS assays) show an excellent correlation for the murine antibody and the humanized AS/SVMDY antibody.
Background: In flow cytometry, cells or beads pass a laser one at a time.

Test [2] concerns the target T1, VLA-4 (integrin alpha4 beta1) on the …. Nature of the test: adhesion assay: inhibition of Ramos cell binding to immobilized rsVCAM1. The method, then:
(§1) Recombinant soluble VCAM1 was prepared and purified essentially as described by Lobb et al., 1991a. Soluble VCAM is diluted to 10 μg/ml in 0.05 M NaHCO₃, (15 mM NaHCO₃, 35 mM Na₂CO₃) pH 9.2. Then 50 μl/well is added into a Linbro Titertek polystyrene 96 well plate, flat bottom, Flow Labs catalog #76-231-05. The plate is incubated at 4° C. overnight.
(§2) For antibody blocking studies, 100 μl/well of murine HP1/2 MAb (anti-VLA-4) typically at 10 μg/ml in RPMI, 2% FBS are added to the rsVCAM1 coated plates and incubated for 30 minutes at room temperature prior to cell binding as described above. MAb HP1/2 (anti-VLA-4) or any recombinant humanized anti-VLA-4 antibody prepared as described herein must be preincubated with labelled cells for 30 minutes at room temperature prior to the cell binding. Concentrations of the antibodies preincubated will vary, but generally concentrations were in the range of about 1 μg/ml.
(§3) The potency of recombinant Stage 0, Stage 1, Stage 2 and Stage 3 antibodies having the VK1 (DQL) light chain that had been purified from stably transfected YB2/0 cell lines was measured in the adhesion assay, as shown in Table III.

The target is the same in test [3]. The experiment in a line: adhesion assay: inhibition of Ramos cell binding to immobilized rsVCAM1; molar value as printed. The method, then:
as §1, §2
In these adhesion assays, murine HP1/2 inhibits Ramos cell binding completely at about 40 ng/ml, and half maximally at about 15 ng/ml ([…]). The results of adhesion assays as represented by the calculated half-maximal binding constants using humanized recombinant anti-VLA-4 antibodies made according to the present invention are shown in Table III. The number-(n) of experiments performed for each value is indicated for the recombinant humanized antibodies.

The target is the same in test [4]. Nature of the test: adhesion assay: inhibition of Ramos cell binding to immobilized rsVCAM1 (n = 6). How it is done: as §1, §2, §3

T1 sequence (P13612 34-1032, chain 1 of 2): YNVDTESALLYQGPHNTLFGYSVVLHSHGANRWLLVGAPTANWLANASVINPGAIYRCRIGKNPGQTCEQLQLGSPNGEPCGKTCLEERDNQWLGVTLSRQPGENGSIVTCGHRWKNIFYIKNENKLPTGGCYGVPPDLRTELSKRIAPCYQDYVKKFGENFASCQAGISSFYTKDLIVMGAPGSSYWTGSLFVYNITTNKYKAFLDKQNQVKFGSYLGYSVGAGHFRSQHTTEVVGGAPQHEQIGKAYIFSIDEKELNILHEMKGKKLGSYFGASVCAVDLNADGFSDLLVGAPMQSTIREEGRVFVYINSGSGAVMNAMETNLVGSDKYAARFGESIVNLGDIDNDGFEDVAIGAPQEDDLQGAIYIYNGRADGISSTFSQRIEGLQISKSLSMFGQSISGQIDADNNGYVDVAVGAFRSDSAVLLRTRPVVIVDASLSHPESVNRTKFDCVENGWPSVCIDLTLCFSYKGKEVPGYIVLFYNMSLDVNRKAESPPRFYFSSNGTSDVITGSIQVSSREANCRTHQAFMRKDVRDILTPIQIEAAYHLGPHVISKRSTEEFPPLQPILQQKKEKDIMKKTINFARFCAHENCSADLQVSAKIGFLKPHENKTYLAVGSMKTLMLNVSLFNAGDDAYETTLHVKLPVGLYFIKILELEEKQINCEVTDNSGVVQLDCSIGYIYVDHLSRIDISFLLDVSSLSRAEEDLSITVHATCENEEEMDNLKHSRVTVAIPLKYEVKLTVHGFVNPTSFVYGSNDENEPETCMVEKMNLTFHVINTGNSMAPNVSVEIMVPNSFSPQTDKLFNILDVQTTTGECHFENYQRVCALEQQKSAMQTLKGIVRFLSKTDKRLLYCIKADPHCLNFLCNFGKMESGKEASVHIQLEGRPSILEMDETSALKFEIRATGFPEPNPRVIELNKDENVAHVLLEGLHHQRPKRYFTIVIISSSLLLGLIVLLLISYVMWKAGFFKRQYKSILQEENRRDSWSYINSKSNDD
T1 sequence (P05556 21-798, chain 2 of 2): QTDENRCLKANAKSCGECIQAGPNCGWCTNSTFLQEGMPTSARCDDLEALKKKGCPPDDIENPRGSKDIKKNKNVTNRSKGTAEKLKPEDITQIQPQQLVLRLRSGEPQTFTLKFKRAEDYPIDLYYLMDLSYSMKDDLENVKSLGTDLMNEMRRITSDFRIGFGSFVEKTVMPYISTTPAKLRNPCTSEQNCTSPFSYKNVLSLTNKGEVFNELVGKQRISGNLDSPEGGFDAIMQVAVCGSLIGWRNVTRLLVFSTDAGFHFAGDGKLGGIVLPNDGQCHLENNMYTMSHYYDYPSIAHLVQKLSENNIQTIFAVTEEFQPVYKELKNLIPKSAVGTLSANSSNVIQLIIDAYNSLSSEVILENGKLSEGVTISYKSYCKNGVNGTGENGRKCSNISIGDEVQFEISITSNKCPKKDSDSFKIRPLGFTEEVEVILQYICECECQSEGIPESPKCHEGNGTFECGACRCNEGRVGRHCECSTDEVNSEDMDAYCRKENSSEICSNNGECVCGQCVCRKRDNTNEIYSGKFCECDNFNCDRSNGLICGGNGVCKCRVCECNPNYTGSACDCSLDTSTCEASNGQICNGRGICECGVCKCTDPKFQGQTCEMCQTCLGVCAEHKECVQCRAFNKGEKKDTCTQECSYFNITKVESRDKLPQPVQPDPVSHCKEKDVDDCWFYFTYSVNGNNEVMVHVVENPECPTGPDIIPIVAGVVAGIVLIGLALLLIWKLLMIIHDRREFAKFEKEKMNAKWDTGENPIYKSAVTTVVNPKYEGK

B1: murine HP1/2 monoclonal antibody (antibody, mouse IgG1, V domains shown)
VH: VKLQQSGAELVKPGASVKLFCTASGFNIKDTYMHWVKQRPQQGLEWIGRIDPASGDTKYDPKFQVKATITADTSSNTAWLQLSSLTSEDTAVYYCADGMWVSTGYALDFWGQGTTVTVSS
VL: SIVMTQTPKFLLVSAGDRVTITCKASQSVTNDVAWYQQKPGQSPKLLIYYASNRYTGVPDRFTGSGYGTDFTFTISTVQAEDLAVYFCQQDYSSPYTFGGGTKLEI
notes: The first eight residues of VH and the first four of VK in the listing are dictated by the PCR primers; also called MAb HP1/2 (anti-VLA-4); HP1/2 MAb
The term EC50 denotes the concentration that produces a half-maximal response. A high value points to a less potent agent. Usually IC50 stands for the concentration at which inhibition is half-maximal. A lower IC50 goes with greater potency in that assay. The molecule B1 yielded an EC50 in test [1] of 0.015 µg/mL. Moreover, the IC50 in test [2] was 0.015 µg/mL; in test [3], roughly 10 µM.

B2: Stage 1 humanized anti-VLA-4 antibody with VK1 (DQL) light chain (antibody, V domains shown)
VH: QVQLQESGPGLVRPSQTLSLTCTVSGFNIKDTYMHWVRQPPGRGLEWIGRIDPASGDTKYDPKFQVRVTMLVDTSKNQFSLRLSSVTAADTAVYYCADGMWVSTGYALDFWGQGTTVTVSS
VL: DIQLTQSPSSLSASVGDRVTITCKASQSVTNDVAWYQQKPGKAPKLLIYYASNRYTGVPSRFSGSGSGTDFTFTISSLQPEDIATYYCQQDYSSPYTFGQGTKVEIKR
notes: Purified from YB2/0 cells; also called Stage 1 (Humanized heavy chain)
In test [4], B2 showed an IC50 of 0.228 µg/mL.
